Source: the supplement of paper PMC12042874
± gives the uncertainty stated by the source.

Assay: amyloid nucleation score (Sup35N fusion, yeast selection) (log enrichment); library NNK2; higher = more nucleation; inactive = no reads after selection
Outline: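 Output and input plasmid inserts were sequenced by Illumina after psi-negative yeast carrying Sup35N fused to peptides of 20 random codons had been induced 24 hours with 100 μM copper sulfate and grown 7 days at 30°C on medium lacking adenine and uracil. The nucleation score is the DiMSum log enrichment of output over input reads, centred on the mode score of non-aggregating sequences. Sequences with under 100 input reads were excluded.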

NSLLVFQNNFGIETNGVNII and NSSRL are within error of each other in amyloid nucleation score: 0.94 ± 0.74 for the first, -0.166 ± 1.1 for the second.

Going from NSTFLCLVGFFCLVFSLRQG to NSTLRSLYTVFFIRMLQMVG, the amyloid nucleation score falls from 3.77 ± 0.1 to -0.753 ± 0.36.

NSVRFSRLKRFSNCMFNHWR and NTATSN are within error of each other in amyloid nucleation score: 0.284 ± 0.65 for the first, -0.22 ± 1.1 for the second.

NTFWLGFPYSLLQALCHALD and NTLEPWMKYSMCLFDKISPT are within error of each other in amyloid nucleation score: 0.447 ± 0.53 for the first, -0.391 ± 0.49 for the second.

NTLITRVHHDQLPRLSDLLL and NTRCQFSTIGHFAASHDRRD are within error of each other in amyloid nucleation score: 1.28 ± 0.38 for the first, 1.17 ± 0.21 for the second.

NTSIQQIPLMSRLGVAFVIW and NTTQAV are within error of each other in amyloid nucleation score: -0.781 ± 0.54 for the first, -0.249 ± 1 for the second.

Going from NTVHWSDSCRLFPHRDQQCF to NTWTCAQPRVTLLAQLYELN, the amyloid nucleation score rises from -0.694 ± 0.61 to 3.1 ± 0.12.

NTYYFKALT and NVAHGW are within error of each other in amyloid nucleation score: 0.072 ± 1.1 for the first, -0.322 ± 0.44 for the second.

Going from NVGTRWSGDARNMFSSKGGK to NVGYWYCLD, the amyloid nucleation score rises from 0.83 ± 0.31 to 8.808 ± 0.033.

NVHDEWKGFVSGTCGKVEKA and NVHFFCWCFLNLCV are within error of each other in amyloid nucleation score: 0.355 ± 0.29 for the first, -0.558 ± 1 for the second.

NVLDASRNLE and NVLGQNAQPPNMDFYVTMIC are within error of each other in amyloid nucleation score: 1.14 ± 0.42 for the first, 0.508 ± 0.56 for the second.

NVPFCIVV and NVRDMCLSACTSQWYYYFAV are within error of each other in amyloid nucleation score: 0.213 ± 0.57 for the first, 0.371 ± 0.37 for the second.

Going from NVVKTWPIYIMRPLWTAHSN to NWLGCEMPIGGSSSVSAMYL, the amyloid nucleation score rises from -0.641 ± 0.31 to 1.17 ± 0.21.

Compared with NWLQDK, NWLQGVYCCGKVIGSLTSTD is higher in amyloid nucleation score: 1.61 ± 0.55 for the first, 8.775 ± 0.043 for the second.

Going from NYFVYNFLVV to NYIMWLWQQTGWSNGWCALI, the amyloid nucleation score falls from 4.95 ± 0.099 to 0.312 ± 0.61.

NYIWFVNPYRRFSHVNHITN and NYMRYTYHSMCVLWFTVGEC are within error of each other in amyloid nucleation score: -0.176 ± 1.1 for the first, 0.864 ± 0.41 for the second.

NYPSVGSDIARLLRLVTRRI and NYTWSNTRLNYPLRVNATNH are within error of each other in amyloid nucleation score: -0.313 ± 0.76 for the first, -1.01 ± 1.1 for the second.

Going from NYWCMVV to PAITFSSYQSIANYWRGPRM, the amyloid nucleation score rises from 5.24 ± 0.075 to 7.899 ± 0.026.

PARLCAVVL and PASNWIRYRMTFQDGPYVKR are within error of each other in amyloid nucleation score: 0.066 ± 0.76 for the first, 0.373 ± 0.66 for the second.

PCITRTARSQIVTFKRG and PCKNIMVYNSLTDAWPCLYM are within error of each other in amyloid nucleation score: -0.35 ± 1.1 for the first, 0.093 ± 0.8 for the second.

First: PCLKGVITLLLKGPGPHRVN
Second: PCRRYRVLFWGGSLVSSMGK
The amyloid nucleation score of the first is lower: 0.091 ± 0.42 for the first, 3.3 ± 0.07 for the second.

PDGAWARLSKSGAEAYLSNF and PDHKLARTIYWAPCTMDWVI are within error of each other in amyloid nucleation score: -0.299 ± 1.1 for the first, -0.057 ± 0.61 for the second.

First: PDLRKDYAWLLLFLVRVRGD
Second: PDSMGKVIYYKSESCFYSRG
The amyloid nucleation score of the first is higher: 4.43 ± 0.085 for the first, 2.72 ± 0.086 for the second.

PDWMRGSSEYWSVGPRYCNS and PFFVV are within error of each other in amyloid nucleation score: 0.355 ± 0.13 for the first, -0.791 ± 1.1 for the second.

PFSWVASDNTYQSTSLSIVH and PGFKSCIP are within error of each other in amyloid nucleation score: 0.995 ± 0.51 for the first, 0.598 ± 0.28 for the second.

Going from PGRDTVTLLHLCHFGVGSGF to PGSNALVGLTIRCNVILKGG, the amyloid nucleation score rises from 0.165 ± 1 to 4.68 ± 0.086.

PGTKLLSSVNAQRDSLKKGG and PGYVAWRIFFFGPVI are within error of each other in amyloid nucleation score: -0.478 ± 0.4 for the first, 0.007 ± 1.1 for the second.

PHHWTQWSVKMSGFRSLLRR and PHPIDNKRMTTPNIADAPPR are within error of each other in amyloid nucleation score: 1.19 ± 0.13 for the first, 0.56 ± 0.74 for the second.

Compared with PIGLYRSMATQVNCC, PIITFNTI is lower in amyloid nucleation score: 3.71 ± 0.094 for the first, -0.637 ± 1.1 for the second.

PISWGRLFNMVPR and PKNLILLSHFYSEAVCPGAR are within error of each other in amyloid nucleation score: -0.98 ± 0.55 for the first, -0.927 ± 1.1 for the second.

PLGSMTNDTTDRNFEVSGRG and PLGYGMGLRGLFGLLDSYFG are within error of each other in amyloid nucleation score: -0.106 ± 0.31 for the first, 0.19 ± 0.8 for the second.

First: PLISRYDYFVCIRILSHSDN
Second: PLLVLVNFLSGKSPQAHCSH
The amyloid nucleation score of the first is lower: 0.98 ± 0.81 for the first, 3.07 ± 0.077 for the second.

Going from PLQPNAIRRSMVSF to PLSPFTHGLSQYIALEIDGQ, the amyloid nucleation score falls from 0.894 ± 0.43 to -0.254 ± 0.63.

PMEWKPALPKTIVADARMRG and PMRKADRYSSSSET are within error of each other in amyloid nucleation score: 0.48 ± 0.3 for the first, -0.479 ± 1 for the second.

PNRTFLLKVGA and PNWPR are within error of each other in amyloid nucleation score: -1.1 ± 1.1 for the first, 0.512 ± 0.66 for the second.

PPCYALDRFLSGSLTVLSPV and PPDSTWYC are within error of each other in amyloid nucleation score: -0.36 ± 0.35 for the first, 0.452 ± 0.53 for the second.

PPGFMYLYCGLYAQSSRSSW and PPHRAYGILMMNTRRTSSIT are within error of each other in amyloid nucleation score: 0.546 ± 0.5 for the first, 0.604 ± 0.37 for the second.

PPLYSFVQYMRGFANNVISG and PPNRVNGNW are within error of each other in amyloid nucleation score: 0.227 ± 0.49 for the first, 0.853 ± 0.57 for the second.

PPNVLDCFNVL and PPWCLNVCDMLRRSHLAFKR are within error of each other in amyloid nucleation score: -0.501 ± 0.64 for the first, -0.213 ± 1.1 for the second.

With NVFKGPVLHGFRDRISWVKD the amyloid nucleation score was “inactive”.
For NWDKKKGRDR, the amyloid nucleation score was “inactive”.
With NWDSINFYRAVSYCDHIFYV the amyloid nucleation score was “inactive”.
For NYKNVVSFLVR, the amyloid nucleation score was “inactive”.
With PGHNQKERLLQLRSI the amyloid nucleation score was “inactive”.
In the case of PLGTSTTSFRSAVFQGMTWL, the amyloid nucleation score is reported as “inactive”.
In the case of PNSGFSGNCIKVIQHNLQG, the amyloid nucleation score is reported as “inactive”.
For PNSLYGYKIAFSLDFFVRVY, the amyloid nucleation score was “inactive”.
